Measured values taken from article PMC4642984, “CRY Drives Cyclic CK2-Mediated BMAL1 Phosphorylation to Control the Mammalian Circadian Clock” (PLoS Biology, 2015).

Target: T1, ELucC-BMAL1 (mouse, UniProt Q9WTL8-2 1-625)
T1 construct: full-length mouse BMAL1 cDNA ligated downstream of ELucC; also called ELucC-BMAL1-WT (full length); ELucC-mBMAL1; source: Cos7 cells, transfected, in living cells; not shown: ELucC (C-terminal fragment of Emerald luciferase), N-terminal, kept
Test: split reporter (BiFC, NanoBiT); Split Luc complementation in living Cos7 cells transfected with ELucN-CK2β and ELucC-BMAL1 (WT or mutant) together with pcDNA, Myc-HA-CRY1, Myc-CRY2 or FLAG-CRY1 (WT or Cd1-4); real-time bioluminescence, averaged peak values
Details: partners not purified

T1 sequence (Q9WTL8 other isoform, or with tags, fused parts or gaps): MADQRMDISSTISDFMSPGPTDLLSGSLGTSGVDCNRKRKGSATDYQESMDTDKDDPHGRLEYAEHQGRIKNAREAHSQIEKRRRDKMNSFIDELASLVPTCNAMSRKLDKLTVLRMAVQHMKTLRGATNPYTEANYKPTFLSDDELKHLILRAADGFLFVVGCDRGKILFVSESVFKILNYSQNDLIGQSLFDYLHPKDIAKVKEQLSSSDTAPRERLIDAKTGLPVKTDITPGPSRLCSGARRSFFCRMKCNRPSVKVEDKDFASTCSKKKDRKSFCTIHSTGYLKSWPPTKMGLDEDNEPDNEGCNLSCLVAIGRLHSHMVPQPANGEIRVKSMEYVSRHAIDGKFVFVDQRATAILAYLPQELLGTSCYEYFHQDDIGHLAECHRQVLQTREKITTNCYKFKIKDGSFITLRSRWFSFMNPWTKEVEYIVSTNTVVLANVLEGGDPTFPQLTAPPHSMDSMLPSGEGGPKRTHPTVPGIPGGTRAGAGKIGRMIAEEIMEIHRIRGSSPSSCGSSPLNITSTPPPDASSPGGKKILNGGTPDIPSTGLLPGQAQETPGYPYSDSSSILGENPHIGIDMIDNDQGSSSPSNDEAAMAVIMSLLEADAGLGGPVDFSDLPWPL

B1: ELucN-CK2β (natural protein)
chain: not shown
notes: full-length human CK2β cDNA ligated downstream of ELucN; Vector backbone pcDNA4/V5-His (B) or pcDNA3.1; also called CMV-ELucN-CK2β; source: Cos7 or U-2OS cells, transfected, in living cells; not shown: ELucN (N-terminal fragment of Emerald luciferase), N-terminal, kept
  fold increase of Split Luc bioluminescence in the presence of CRY proteins: ~4 fold
  fold increase of Split Luc bioluminescence on over-expression of Myc-tagged CRY1 or CRY2: ~6 fold
